According to article PMC9588798:

Biological target: Human IgM heavy (μ) chain of the full-length IgM pentamer from myeloma (human) (UniProt P01871)
Test: cryo-EM structure; full-length human IgM pentamer without secretory component, 0.25 mg/ml, in PBS; single-particle cryo-EM, 3D variability analysis and focused refinement on subunit 1; models PDB 6KXS, 4JVU and 2AGJ rigidly docked

stoichiometry N: 10
Substance: Human IgM heavy (μ) chain of the full-length IgM pentamer from myeloma (from UniProt P01871 106-433) (natural protein)
